Target: COBRA P1 HA ectodomain, insect-cell expressed, Foldon and tags removed by thrombin
Test: SEC; Superdex 200 16/600 in 50 mM NaCl, 10 mM Tris pH 7.5, after thrombin digestion that removed the Foldon and tags

Substance “COBRA P1 HA ectodomain, insect-cell expressed, Foldon and tags removed by thrombin” has a stoichiometry N of 3.

— PMC10126545
